Consider four sequences from the Immune Epitope Database (IEDB).

A word on the Kd: it is the free concentration of one partner at which half of the binding sites on the other are occupied at equilibrium, for simple one-to-one binding. A high value points to lower affinity. As usually defined, the IC50 is the concentration needed to halve the response being measured. A higher IC50 goes with a need for much substance.

Assay [1] concerns the target HLA-A*02:01. Kind of assay: IEDB peptide-MHC binding, purified MHC/competitive/fluorescence; filed as Kd, often an IC50 or EC50 that approximates it; ≥ and ≤ were set here for values at or beyond the usual limits of such assays.
For assay [2], the target named is HLA-A*02:03. The description is as above.
Assay [3] concerns the target HLA-A*02:11. The description is as above.
Assay [4] has as its target HLA-A*02:12. The assay is described as above.
In assay [5] the target is HLA-A*02:16. The description is as above.
Assay [6] addresses HLA-A*02:19. The description is as above.
The target of assay [7] is HLA-A*03:01. The description is as above.
The target of assay [8] is HLA-A*24:03. The assay is described as above.
The target in a further assay is HLA-A*26:01. Described as above.
The target in assay [9] is HLA-A*29:02. The assay is described as above.
Assay [10] has as its target HLA-A*68:02. The description is as above.
A further assay deals with HLA-A*69:01. Described as above.
The target in a further assay is HLA-B*15:01. Described as above.
A further assay concerns the target HLA-B*15:17. The assay is described as above.
The next assay deals with HLA-B*18:01. The assay is described as above.
In a further assay the target is HLA-B*27:03. The description is as above.
A further assay has as its target HLA-B*39:01. The description is as above.
A further assay concerns the target HLA-B*46:01. Described as above.
The target in the next assay is HLA-B*51:01. Described as above.
For a further assay, the target named is HLA-B*57:01. The assay is described as above.
In assay [11] the target is HLA-A*02:01. As to the kind of experiment: IEDB peptide-MHC binding, purified MHC/competitive/fluorescence; ≥ and ≤ were set here for values at or beyond the usual limits of such assays. To be noted: source organism: Zaire ebolavirus.
The target of another assay is HLA-A*24:02. The description is as above. To be noted: source organism: Zaire ebolavirus.
Assay [12] has as its target HLA-B*07:02. The description is as above. To be noted: source organism: Zaire ebolavirus.
A further assay addresses HLA-B*08:01. The description is as above. To be noted: source organism: Zaire ebolavirus.
Assay [13] concerns the target HLA-A*02:03. As to the kind of experiment: IEDB peptide-MHC binding, purified MHC/direct/fluorescence; filed as Kd, often an IC50 or EC50 that approximates it; ≥ and ≤ were set here for values at or beyond the usual limits of such assays. To be noted: source organism: Zaire ebolavirus.
Assay [14] concerns the target HLA-A*02:11. Described as above. The note with it: source organism: Zaire ebolavirus.
Assay [15] addresses HLA-A*02:12. Described as above. To be noted: source organism: Zaire ebolavirus.
The target in assay [16] is HLA-A*02:16. The assay is described as above. The note with it: source organism: Zaire ebolavirus.
For assay [17], the target named is HLA-A*02:19. Described as above. The note with it: source organism: Zaire ebolavirus.
For assay [18], the target named is HLA-A*03:01. Described as above. The note with it: source organism: Zaire ebolavirus.
Assay [19] addresses HLA-A*23:01. The assay is described as above. The note with it: source organism: Zaire ebolavirus.
In assay [20] the target is HLA-A*24:03. The description is as above. To be noted: source organism: Zaire ebolavirus.
Assay [21] addresses HLA-A*29:02. Described as above. To be noted: source organism: Zaire ebolavirus.
The target of assay [22] is HLA-A*68:02. The description is as above. The note with it: source organism: Zaire ebolavirus.
Assay [23] has as its target HLA-B*07:02. The assay is described as above. The note with it: source organism: Zaire ebolavirus.
In assay [24] the target is HLA-A*23:01. Kind of assay: IEDB peptide-MHC binding, purified MHC/competitive/fluorescence; filed as Kd, often an IC50 or EC50 that approximates it; ≥ and ≤ were set here for values at or beyond the usual limits of such assays.
Another assay has as its target HLA-A*31:01. The description is as above. To be noted: source organism: Escherichia coli E110019.
The mark [25] stands for this setting: source organism: Giardia lamblia ATCC 50803.
Setting [26] is: source organism: Zaire ebolavirus.
Setting [27] is: source organism: Escherichia coli E110019.

On to ALGGSCHTT, for which the Kd is not below 20 µM with HLA-A*02:01 [1] (setting [25]); not below 20 µM in the assay with HLA-A*02:03 [2] (setting [25]); not below 20 µM with HLA-A*02:11 [3] (setting [25]); not below 20 µM in the assay with HLA-A*02:12 [4] (setting [25]); not below 20 µM with HLA-A*02:16 [5] (setting [25]); 0.555 µM with HLA-A*02:19 [6] (setting [25]). Further, the Kd with HLA-A*03:01 [7] (setting [25]), in the assay with HLA-A*24:03 [8] (setting [25]), with HLA-A*26:01 (setting [25]), with HLA-A*29:02 [9] (setting [25]), with HLA-A*68:02 [10] (setting [25]) and in the assay with HLA-A*69:01 (setting [25]) was not below 20 µM each time. Besides, the Kd with HLA-B*15:01 (setting [25]), with HLA-B*15:17 (setting [25]), in the assay with HLA-B*18:01 (setting [25]), with HLA-B*27:03 (setting [25]), in the assay with HLA-B*39:01 (setting [25]) and with HLA-B*46:01 (setting [25]) was not below 20 µM throughout. The dissociation constant Kd in the assay with HLA-B*51:01 (setting [25]) and with HLA-B*57:01 (setting [25]) was not below 20 µM each time.

APFARLLNL: the IC50 with HLA-A*02:01 [11] was not below 161 µM; with HLA-A*24:02 it was 5.54 µM; with HLA-B*07:02 [12], 0.633 µM; in the assay with HLA-B*08:01, 7.08 µM. Further, the Kd with HLA-A*02:03 [13], in the assay with HLA-A*02:11 [14], with HLA-A*02:12 [15], with HLA-A*02:16 [16], with HLA-A*02:19 [17] and in the assay with HLA-A*03:01 [18] was not below 20 µM throughout. Further, the Kd with HLA-A*23:01 [19] is not below 20 µM; in the assay with HLA-A*24:03 [20] it was not below 20 µM; with HLA-A*29:02 [21], not below 20 µM; in the assay with HLA-A*68:02 [22] it was not below 20 µM; in the assay with HLA-B*07:02 [23] it was 0.0218 µM; in the assay with HLA-A*02:01 [1] (setting [26]), not below 20 µM. Moreover, the Kd with HLA-A*26:01 (setting [26]), with HLA-A*69:01 (setting [26]), with HLA-B*15:01 (setting [26]), with HLA-B*15:17 (setting [26]), with HLA-B*18:01 (setting [26]) and with HLA-B*27:03 (setting [26]) was not below 20 µM throughout. Moreover, the Kd in the assay with HLA-B*39:01 (setting [26]), with HLA-B*46:01 (setting [26]), with HLA-B*51:01 (setting [26]) and with HLA-B*57:01 (setting [26]) was not below 20 µM throughout.

RAFWGQVQK: the Kd in the assay with HLA-A*02:01 [1] (setting [27]), in the assay with HLA-A*02:03 [2] (setting [27]), with HLA-A*02:11 [3] (setting [27]), with HLA-A*02:12 [4] (setting [27]), with HLA-A*02:16 [5] (setting [27]) and in the assay with HLA-A*02:19 [6] (setting [27]) was not below 20 µM each time. The Kd is not below 20 µM with HLA-A*23:01 [24] (setting [27]); not below 20 µM with HLA-A*24:03 [8] (setting [27]); not below 20 µM in the assay with HLA-A*26:01 (setting [27]); 0.0027 µM with HLA-A*31:01; not below 20 µM with HLA-A*68:02 [10] (setting [27]); not below 20 µM in the assay with HLA-A*69:01 (setting [27]). The Kd in the assay with HLA-B*15:01 (setting [27]), with HLA-B*18:01 (setting [27]), with HLA-B*39:01 (setting [27]), with HLA-B*46:01 (setting [27]), with HLA-B*51:01 (setting [27]) and in the assay with HLA-B*57:01 (setting [27]) was not below 20 µM in each case.

SQLPPACPV: the Kd with HLA-A*02:01 [1] (source organism: Homo sapiens) was 0.0306 µM; with HLA-A*02:03 [2] (source organism: Homo sapiens), not below 20 µM; with HLA-A*02:12 [4] (source organism: Homo sapiens) it was 0.17 µM; in the assay with HLA-A*02:16 [5] (source organism: Homo sapiens), not below 20 µM; with HLA-A*02:19 [6] (source organism: Homo sapiens), not below 20 µM; with HLA-A*03:01 [7] (source organism: Homo sapiens), not below 20 µM. Besides, the Kd with HLA-A*23:01 [24] (source organism: Homo sapiens), with HLA-A*24:03 [8] (source organism: Homo sapiens), in the assay with HLA-A*26:01 (source organism: Homo sapiens), with HLA-A*29:02 [9] (source organism: Homo sapiens), with HLA-A*69:01 (source organism: Homo sapiens) and with HLA-B*15:17 (source organism: Homo sapiens) was not below 20 µM each time. The Kd with HLA-B*18:01 (source organism: Homo sapiens), with HLA-B*27:03 (source organism: Homo sapiens), with HLA-B*46:01 (source organism: Homo sapiens), in the assay with HLA-B*51:01 (source organism: Homo sapiens) and with HLA-B*57:01 (source organism: Homo sapiens) was not below 20 µM in each case.
